Measured values: paper PMC3948368

Molecular target: EGFRvIII (on U87-EGFRvIII cells) del30-297 (UniProt P00533)
Assay: cell ELISA
Conditions: apparent Kd, fixed U87-EGFRvIII cells, 3% BSA in PBST block (PBS, 0.01% Tween 20, pH 7.4), 37 C 40 min, SELEX binding buffer: PBS, 5 mM MgCl2, glucose, yeast tRNA, salmon …

“ATCCAGAGTGACGCAGCATGAATCTTTTCTTTTGGTTTTGATATTTATAGTTGGTGAATGGACACGGTGGCTTAGT [U8]” was tested, and the Kd was 4.35 nM.

For “ATCCAGAGTGACGCAGCATTTTGACGCTTTATCCTTTTCTTATGGCGGGATAGTTTCGTGGACACGGTGGCTTAGT [U2]”, the Kd was 3.37 nM.
